Test [1] has as its system corneal epithelial cells from the SV40 transformed cell line. As to the kind of experiment: in vitro wound healing assay (scratch wound), cell line. Particulars: 250 ng/ml; 18 h; control 20%±4.5. In kind it is cell-based, human. As to the method: (§1) For in vitro wound healing assays primary corneal epithelial cells and cells from the corneal epithelial cell line were seeded at a density of 5×10^5 onto 60 mm plastic dishes with 2 mm grid (Sarstedt, Numbrecht, Germany) and cultured for 2 days until subconfluency. For experiments with artemin primary cultured rabbit corneal epithelial cells were used. These cells had been isolated with Dispase (1,2 U/ml) and trypsin/EDTA. Rabbit cells had been cultured in medium 500 with additives (Cascade Biologies).
(§2) The cell layer was injured under the microscope by inducing several parallel scratches with a soft plastic cell scrubber (Falcon, Becton and Dickinson, Heidelberg, Germany). The tip of the scrubber was cut and measured about 1 mm and consequently the width of the scratch in the cell layer was also about 1 mm. Selected areas in the dishes were marked with a very fine marker pen and consecutive images were taken at different time points at 5×magnification under an inverted phase contrast microscope (Axiovert 25, Zeiss, Jena, Germany) equipped with a video camera. Following the experimental injury dishes were incubated in SHEM medium either containing no growth factors (control) or containing either GDNF (250 ng/ml) (recombinant human GDNF expressed in E. coli), NGF (250 ng/ml) (Boehringer Mannheim, Germany) or EGF ([…]). For experiments investigating artemin cells were cultured in medium 500 without additives and 250 ng artemin was added. For each condition four representative areas were evaluated within three dishes. The mean diameter of the scratch in each representative area was set as 100% at the beginning of the experiment. 18 hours later the mean diameter of the same scratch was calculated again and expressed in percent of the diameter at the beginning of the experiment.

In test [2] the test system is primary human corneal epithelial cells. As to the kind of experiment: in vitro wound healing assay (scratch wound), primary cells. Particulars: 250 ng/ml; 18 h; control less than 10%. In kind it is cell-based. On the procedure:
as §1, §2

The subject of test [3] is primary human corneal stromal cells. Briefly: proliferation of cultured stromal keratocytes (cell counting, Cell Titer 96 AQueous assay). Format: cell-based. Particulars: 20 or 100 ng/ml; serum-free medium; D6; p<0.005. On the procedure: In order to investigate the effect of GDNF on the proliferation of cultured stromal keratocytes the cells were passaged from DMEM +10% FBS into DMEM +1% FBS or into DMEM without FBS at a density of 5×10^4 cells/60 mm dish. Some cultures received recombinant human GDNF at the above-mentioned concentrations. Proliferation was measured after 6 days by counting cells under the phase contrast microscope (50 fields at 100×magnification per condition) as well as trypsinized cells. Also a Cell Titer 96 AQueous One Solution proliferation assay (Promega) was performed according to the manufacturess description. For this calorimetric assay 500 or 1000 cells were grown for 6 days in 96-well-plates (Falcon). Upon addition to the culture well a titrazolium dye is bioreduced by cells into a colored formazan product and the absorbance is quantified at 490 nm. The quantity of the formazan product is proportional to the number of living cells in the well and can therefore serve to estimate proliferation.

The subject of test [4] is corneal ulcer. Briefly: topical therapy of corneal ulcer in a human patient. Particulars: one patient. Format: in vivo. As to the method:
[…] Corneal ulcer accompanied by massive inflammation on the left. Epithelial defect of 3.8×3.0 mm in size, furthermore ulcus of corneal stroma in form of a punched-out defect comprising 80% of the thickness of the cornea. No pain sensation of the cornea and significant accompanying inflammation of the eye. The patient was treated with recombinant human (rh) GNDF (0.2 mg/ml) (25 μl/dose) in 2 hours intervals for 48 hours, then the doses were reduced to 20 μl 6 times per day. After healing of the epithelium the concentration was reduced to 0.1 mg/ml, and 20 μl doses were given 5 times per day. For adminstration, lyophilized recombinant human GDNF was diluted in sterile balanced salt solution (Alcon, Freiburg Germany).

The test system of test [5] is ERK1, ERK2, JNK1 and JNK2. Briefly: western blot of phosphorylated MAP kinases in cultured human corneal stromal keratocytes. In kind it is cell-based. As to the method: In order to evaluate the effect of GDNF and other neurotrophic factors on the activation of signal transduction pathways in cultured corneal epithelial and stromal keratocytes, western blots were performed for detecting an accumulation of phosphorylated MAP kinases ERK and JNK in the presence of GDNF, NGF and BDNF. Human stromal keratocytes were cultured in RPMI 1640 medium containing L-glutamine (glutaMAX) or DMEM with 10% FBS for one day and starved in serum-free medium for another day. Cultures were then washed with PBS and incubated in serum-free DMEM without additives or with recombinant human GDNF (200 ng/ml), recombinant human NGF (200 ng/ml) and recombinant human BDNF (200 ng/ml) (all obtained from R & D Systems, Mineapolis, Minn., USA) for 30 min. Some cultures were incubated with an inhibitor of MAP kinases (PD 98059, Torcris Cookson Ballwin, Mo., USA) at 100 μM for 1 h prior to exposure to neurotrophines. After washing with PBS, culture cells were solubilized in lysis buffer containing 50 mM Tris-Cl (pH 8.0), 150 mM NaCl, 0.02% sodium azide, 100 μg/ml PMSF, 1% Triton X-100 and a mixture of several protein inhibitors (Complete®, Boehringer Mannheim) (one tablet/50 ml buffer). 50 μg total protein per lane was fractionated by a 10% STS-MOPS NUPAGE Bis-tris gel (NOVEX, San Diego, Calif., USA) and blotted onto nitrocellulose membrane. Membranes were stained with diluted polyclonal antibodies against ERK1, ERK2, JNK1 and JNK2 (Santa Cruz Biotechnology, Santa Cruz, Calif., USA). Also a polyclonal antibody was used which recognizes the […] form of either ERK1 and ERK2 which was raised against the catalytic core of the phosphorylated threonine residue 183 and tyrosine residue 185 of mammalian ERK2. Similarily, a polyclonal antibody recognizing the phosphorylated form of JNK1 and JNK2 was used (both from Promega). In the last step the membranes were visualized with the ECL western blot analysis system (Amersham).

For test [6], the system named is corneal epithelial cells. Briefly: in vitro wound healing model with herbimycin A. Format: cell-based. Particulars: 250 ng/ml GDNF alone; 18 hours. On the procedure: as §1
The cell layer was injured under the microscope by inducing several parallel scratches with a soft plastic cell scrubber (Falcon, Becton and Dickinson, Heidelberg, Germany). The tip of the scrubber was cut and measured about 1 mm and consequently the width of the scratch in the cell layer was also about 1 mm. Selected areas in the dishes were marked with a very fine marker pen and consecutive images were taken at different time points at 5×magnification under an inverted phase contrast microscope (Axiovert 25, Zeiss, Jena, Germany) equipped with a video camera. […] For each condition four representative areas were evaluated within three dishes. […] 18 hours later the mean diameter of the same scratch was calculated again and expressed in percent of the diameter at the beginning of the experiment. […]

[7] abbreviates: rhGDNF 0.2 mg/ml eye drops, topical.

B1: GDNF: recombinant human GDNF having the amino acid sequence of human wild-type GDNF (GenBank L19063, L15306) (protein)
chain: SPDKQMAVLPRRERNRQAAAANPENSRGKGRRGQRGKNRGCVLTAIHLNVTDLGLGYETKEELIFRYCSGSCDAAETTYDKILKNLSRNRRLVSDKVGQACCRPIAFDDDLSFLDDNLVYHILRKHSAKRCGCI
Regarding B1, in test [1], the “gap in the cell monolayer filled” value is on record as 30%±6.9. Besides, the “gap in the cell monolayer filled” value in test [2] was found to be 16.5±6%. In addition, in test [3], the “proliferation of stromal keratocytes” value is recorded as “significantly enhanced”. In addition, in test [4] (setting [7]), the “start of wound healing” value came to 2 days and the “time to complete wound healing of the epithelium” value is recorded as 3 weeks. In test [4] (rhGDNF topical), the “inflammation and subjective afflictions after healing of the epithelium” value is given as “significant reduction”; the “thickness of the stroma” value is given as “continuous increase”. In addition, the “activated JNK2” value in test [5] is listed as “not induced”. In test [5] (200 ng/ml factor vs control), the “phosphorylation of ERK1 and ERK2” value is “induced ERK1 to a limited extent”. The “phosphorylation of JNK1” value in test [5] (vs serum-free medium) is given as “weakly induced”. In addition, the “wound gap filled with cells” value in test [6] was found to be 37.9±8.1%.

(Values after US20030166537A1, “Use of GDNF for treating corneal defects” (Biopharm Gesellschaft Zur Biotechnologischen Entwicklung …, priority 1999, published 2003).)
